{
  "source": "paper PMC8505397",
  "about": "“Development of peptides targeting receptor binding site of the envelope glycoprotein to contain the West Nile virus infection” (Scientific Reports, 2021)",
  "test_in_all_cases": "ELISA; peptides covalently coated through their C-terminus in Nunc CovaLink NH plates (EDC plus sulfo-NHS), blocked with 0.5% BSA in PBS, incubated with rDIII, detected with HisProbe-HRP; negative control (no rDIII) subtracted",
  "details_in_all_cases": "both partners purified",
  "key": {"[1]": {"target": "T1, 7-mer cyclic peptide CP2 (ACX7CGGGS form of CTKTDVHFC) (disulfide 2-10 (inferred))", "T1 construct": "additional alanine at the N-terminus (ACX7CGGGS); peptide of phage clone CC2; C-terminal linker; source: E. coli SHuffle T5, purified; N-terminal tag cleaved with enterokinase and removed on nickel beads; not shown: His6, N-terminal, cleaved; 28 aa tag, N-terminal, cleaved", "T1 peptide": "ACTKTDVHFCGGGS"}, "[2]": {"target": "T2, 7-mer cyclic peptide CP4 (ACX7CGGGS form of CIHSSTRAC) (disulfide 2-10 (inferred))", "T2 construct": "additional alanine at the N-terminus (ACX7CGGGS); peptide of phage clone CC4; C-terminal linker; source: E. coli SHuffle T5, purified; N-terminal tag cleaved with enterokinase and removed on nickel beads; not shown: His6, N-terminal, cleaved; 28 aa tag, N-terminal, cleaved", "T2 peptide": "ACIHSSTRACGGGS"}, "[3]": {"target": "T3, 7-mer cyclic peptide CP6 (ACX7CGGGS form of CMQTQRAHC) (disulfide 2-10 (inferred))", "T3 construct": "additional alanine at the N-terminus (ACX7CGGGS); peptide of phage clone CC6; C-terminal linker; source: E. coli SHuffle T5, purified; N-terminal tag cleaved with enterokinase and removed on nickel beads; not shown: His6, N-terminal, cleaved; 28 aa tag, N-terminal, cleaved", "T3 peptide": "ACMQTQRAHCGGGS"}, "[4]": {"target": "T4, 7-mer cyclic peptide CP7 (ACX7CGGGS form of CTNANHYFC) (disulfide 2-10 (inferred))", "T4 construct": "additional alanine at the N-terminus (ACX7CGGGS); peptide of phage clone CC7; C-terminal linker; source: E. coli SHuffle T5, purified; N-terminal tag cleaved with enterokinase and removed on nickel beads; not shown: His6, N-terminal, cleaved; 28 aa tag, N-terminal, cleaved", "T4 peptide": "ACTNANHYFCGGGS"}, "[5]": {"target": "T5, 7-mer cyclic peptide CP12 (ACX7CGGGS form of CTYENHRTC) (disulfide 2-10 (inferred))", "T5 construct": "additional alanine at the N-terminus (ACX7CGGGS); peptide of phage clone CC12; C-terminal linker; source: E. coli SHuffle T5, purified; N-terminal tag cleaved with enterokinase and removed on nickel beads; not shown: His6, N-terminal, cleaved; 28 aa tag, N-terminal, cleaved", "T5 peptide": "ACTYENHRTCGGGS"}, "[6]": {"target": "T6, 7-mer cyclic peptide CP15 (ACX7CGGGS form of CDPRHSKFC) (disulfide 2-10 (inferred))", "T6 construct": "additional alanine at the N-terminus (ACX7CGGGS); peptide of phage clone CC15; C-terminal linker; source: E. coli SHuffle T5, purified; N-terminal tag cleaved with enterokinase and removed on nickel beads; not shown: His6, N-terminal, cleaved; 28 aa tag, N-terminal, cleaved", "T6 peptide": "ACDPRHSKFCGGGS"}, "[7]": {"target": "T7, 7-mer cyclic peptide CP16 (ACX7CGGGS form of CLAQSHPLC) (disulfide 2-10 (inferred))", "T7 construct": "additional alanine at the N-terminus (ACX7CGGGS); peptide of phage clone CC16; C-terminal linker; also called C16; source: E. coli SHuffle T5, purified; N-terminal tag cleaved with enterokinase and removed on nickel beads; not shown: His6, N-terminal, cleaved; 28 aa tag, N-terminal, cleaved", "T7 peptide": "ACLAQSHPLCGGGS"}, "[8]": {"target": "T8, 12-mer linear peptide LP3 (X12GGGS form of SGVYKVAYDWQH)", "T8 construct": "peptide of phage clone LC3; C-terminal linker; source: E. coli SHuffle T5, purified; N-terminal tag cleaved with enterokinase and removed on nickel beads; not shown: His6, N-terminal, cleaved; 28 aa tag, N-terminal, cleaved", "T8 peptide": "SGVYKVAYDWQHGGGS"}},
  "note": "Positions of bridges follow the written chain, without caps; N, C: chain ends. No end group written: not given here.",
  "data": [
    {"binder": "recombinant domain III (DIII) of the envelope (E) glycoprotein of West Nile virus (domain or fragment) GTTYGVCSKAFKFLGTPADTGHGTVVLELQYTGTDGPCKVPISSVASLNDLTPVGRLVTVNPFVSVATANAKVLIELEPPFGDSYIVVGRGEQQINHHWHK", "values": [
      {"measurement": "A450", "setting": "[1]", "value": "> 1.9"},
      {"measurement": "A450", "setting": "[2]", "value": "> 1.9"},
      {"measurement": "A450", "setting": "[3]", "value": "> 1.9"},
      {"measurement": "A450", "setting": "[4]", "value": "> 1.9"},
      {"measurement": "A450", "setting": "[5]", "value": "> 1.9"},
      {"measurement": "A450", "setting": "[6]", "value": "> 1.9"},
      {"measurement": "A450", "setting": "[7]", "value": "> 1.9"},
      {"measurement": "A450", "setting": "[8]", "value": 2.56}
    ]}
  ]
}
